Publication PMC3272004

How the values were obtained:
[1] = target: GST-tagged histone H4 tail (UniProt P02309); test: pull-down; GST-H3 tail or GST-H4 tail immobilised on glutathione beads; in vitro translated [35S]-Gro variants; overnight at 4°C in HEMNK buffer (40 mM HEPES pH 7.5, 5 mM MgCl2, 0.2 mM EDTA, 1 mM DTT, 0.5% NP-40, 0.1 M KCl); autoradiography
[2] = target: GST-tagged histone H3 tail (UniProt P61830); test: as above

Gro^ΔCR, Gro deletion variant lacking the entire central region (GP, CcN and SP domains), untagged (from UniProt P16371 1-730) (natural protein)
fold reduction of binding against Gro^WT [1]: > 4 fold | fold reduction of binding against Gro^WT [2]: > 4 fold
